According to the supplement of paper PMC9112550, “Optimization of the antimicrobial peptide Bac7 by deep mutational scanning” (BMC Biology, 2022):

The sequences below were run on Escherichia coli TOP10 (assay: shrunken log2 fold change of peptide-encoding DNA abundance (4.5 h post-induction vs induction); higher = less antimicrobial activity (less host growth inhibition)). Conditions: time post-induction: 4.5 h; library: site-saturation at positions 5, 18, 19, 20.
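Also: peptides expressed intracellularly from a pBAD plasmid library in pooled LB shake-flask culture, induced with 0.3% L-arabinose, DNA abundance read by NGS, three biological replicates, DESeq2 with apeglm shrinkage.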

Sequence | shrunken log2 fold change
RRIRDRPPRLPRPRPRPCDKPRP | -0.206
RRIRARPPRLPRPRPRPCHLPRP | -0.171
RRIRRRPPRLPRPRPRPCIGPRP | -0.328
RRIRDRPPRLPRPRPRPYTMPRP | -0.0014
RRIRGRPPRLPRPRPRPRLCPRP | 1.19
RRIRKRPPRLPRPRPRPPSPPRP | 0.588
RRIRFRPPRLPRPRPRPEGSPRP | -0.134
RRIRWRPPRLPRPRPRPKPWPRP | 0.515
RRIRSRPPRLPRPRPRPTVNPRP | -0.477
RRIRERPPRLPRPRPRPIKVPRP | -0.0179
RRIRSRPPRLPRPRPRPAVLPRP | -0.355
RRIRIRPPRLPRPRPRPTAVPRP | 0.028
RRIRFRPPRLPRPRPRPIWKPRP | 0.248
RRIRIRPPRLPRPRPRPIRSPRP | -0.273
RRIRSRPPRLPRPRPRPCMYPRP | -0.0328
RRIRGRPPRLPRPRPRPWTCPRP | -0.0593
RRIRPRPPRLPRPRPRPRITPRP | 0.0754
RRIRCRPPRLPRPRPRPWPDPRP | 0.0862
RRIRMRPPRLPRPRPRPNLHPRP | -0.0942
RRIRCRPPRLPRPRPRPQIGPRP | -0.00649
RRIRSRPPRLPRPRPRPDKDPRP | -0.102
RRIRFRPPRLPRPRPRPERLPRP | 0.265
RRIRMRPPRLPRPRPRPVFNPRP | -0.0958
RRIRFRPPRLPRPRPRPMWCPRP | 0.0155
RRIRFRPPRLPRPRPRPHSYPRP | -0.0495

Sequence | shrunken log2 fold change
RRIRKRPPRLPRPRPRPHPKPRP | 0.386
RRIRMRPPRLPRPRPRPRKRPRP | 3
RRIRMRPPRLPRPRPRPLSAPRP | 1.19
RRIRCRPPRLPRPRPRPHYAPRP | -0.299
RRIRERPPRLPRPRPRPPDAPRP | 0.142
RRIRWRPPRLPRPRPRPKVCPRP | -0.0693
RRIRNRPPRLPRPRPRPLHNPRP | -0.503
RRIRNRPPRLPRPRPRPCCWPRP | -0.0688
RRIRNRPPRLPRPRPRPGGKPRP | -0.101
RRIRQRPPRLPRPRPRPINNPRP | -0.803
RRIRTRPPRLPRPRPRPVEYPRP | -0.122
RRIRNRPPRLPRPRPRPYDAPRP | -0.066
RRIRDRPPRLPRPRPRPDRLPRP | 0.0401
RRIRIRPPRLPRPRPRPQLVPRP | -0.163
RRIRTRPPRLPRPRPRPSEEPRP | 0.0771
RRIRDRPPRLPRPRPRPKGYPRP | -0.097
RRIRYRPPRLPRPRPRPWFTPRP | -0.165
RRIRIRPPRLPRPRPRPLICPRP | -0.738
RRIRTRPPRLPRPRPRPEYGPRP | -0.0673
RRIRGRPPRLPRPRPRPYYMPRP | -0.238
RRIRNRPPRLPRPRPRPLTEPRP | 0.284
RRIRHRPPRLPRPRPRPLKMPRP | -0.182
RRIRIRPPRLPRPRPRPFVPPRP | -0.722
RRIRSRPPRLPRPRPRPHQYPRP | -0.549
RRIRIRPPRLPRPRPRPSGSPRP | -0.17

Sequence | shrunken log2 fold change
RRIRERPPRLPRPRPRPHGQPRP | -0.0165
RRIRDRPPRLPRPRPRPKPRPRP | 0.711
RRIRLRPPRLPRPRPRPEKQPRP | 0.0884
RRIRQRPPRLPRPRPRPFDIPRP | -0.16
RRIRMRPPRLPRPRPRPPTMPRP | 0.271
RRIRLRPPRLPRPRPRPLLKPRP | -0.163
RRIRLRPPRLPRPRPRPACRPRP | 0.227
RRIRTRPPRLPRPRPRPTCKPRP | -0.047
RRIRKRPPRLPRPRPRPFWQPRP | 0.0521
RRIRCRPPRLPRPRPRPMSAPRP | -0.0757
RRIRPRPPRLPRPRPRPNQYPRP | -0.509
RRIRERPPRLPRPRPRPGIMPRP | -0.738
RRIRWRPPRLPRPRPRPKYTPRP | -0.315
RRIRYRPPRLPRPRPRPARQPRP | 0.279
RRIRERPPRLPRPRPRPASKPRP | -0.12
RRIRSRPPRLPRPRPRPGCIPRP | 0.0242
RRIRMRPPRLPRPRPRPKLDPRP | 1.7
RRIRWRPPRLPRPRPRPVIWPRP | 0.147
RRIRMRPPRLPRPRPRPKDPPRP | 0.438
RRIRLRPPRLPRPRPRPFAYPRP | -0.163
RRIRSRPPRLPRPRPRPGVTPRP | 0.0674
RRIRPRPPRLPRPRPRPLFHPRP | -0.131
RRIRCRPPRLPRPRPRPSWCPRP | -0.417
RRIRNRPPRLPRPRPRPTTIPRP | -0.819
RRIRARPPRLPRPRPRPTWDPRP | 0.604

Sequence | shrunken log2 fold change
RRIRRRPPRLPRPRPRPVGNPRP | -0.0457
RRIRYRPPRLPRPRPRPWDQPRP | 0.0123
RRIRTRPPRLPRPRPRPLMGPRP | 0.0521
RRIRQRPPRLPRPRPRPITNPRP | -0.158
RRIRHRPPRLPRPRPRPHSPPRP | -0.468
RRIRERPPRLPRPRPRPNLRPRP | 0.0952
RRIRHRPPRLPRPRPRPQTFPRP | -0.105
RRIRSRPPRLPRPRPRPHRFPRP | -0.301
RRIRLRPPRLPRPRPRPATGPRP | 0.13
RRIRMRPPRLPRPRPRPQFDPRP | -0.0694
RRIRLRPPRLPRPRPRPTCEPRP | 0.497
RRIRQRPPRLPRPRPRPLYAPRP | -0.399
RRIRFRPPRLPRPRPRPSYTPRP | -0.771
RRIRPRPPRLPRPRPRPVWRPRP | 0.516
RRIRLRPPRLPRPRPRPKYMPRP | -0.544
RRIRRRPPRLPRPRPRPKHHPRP | 0.346
RRIRGRPPRLPRPRPRPYLFPRP | -0.0066
RRIRTRPPRLPRPRPRPGPSPRP | 0.438
RRIRLRPPRLPRPRPRPRMTPRP | 0.206
RRIRKRPPRLPRPRPRPCKNPRP | -0.0355
RRIRARPPRLPRPRPRPCMMPRP | -0.0864
RRIRDRPPRLPRPRPRPTEQPRP | -0.0141
RRIRARPPRLPRPRPRPCFAPRP | 0.61
RRIRTRPPRLPRPRPRPVKTPRP | 0.12
RRIRRRPPRLPRPRPRPGDKPRP | -0.292

Sequence | shrunken log2 fold change
RRIRVRPPRLPRPRPRPHMEPRP | -0.0402
RRIRHRPPRLPRPRPRPSMKPRP | -0.436
RRIRWRPPRLPRPRPRPFVEPRP | -0.436
RRIRNRPPRLPRPRPRPPWAPRP | 0.38
RRIRSRPPRLPRPRPRPFSFPRP | -0.633
RRIRARPPRLPRPRPRPQVLPRP | -0.0334
RRIRVRPPRLPRPRPRPAGMPRP | -0.0507
RRIRKRPPRLPRPRPRPSSQPRP | 0.0821
RRIRLRPPRLPRPRPRPCRMPRP | -0.0411
RRIRVRPPRLPRPRPRPGYHPRP | -0.364
RRIRMRPPRLPRPRPRPCNPPRP | -0.0764
RRIRHRPPRLPRPRPRPGCSPRP | -0.08
RRIRKRPPRLPRPRPRPYPDPRP | -0.175
RRIRCRPPRLPRPRPRPSMCPRP | -0.14
RRIRMRPPRLPRPRPRPWHGPRP | -0.0653
RRIRSRPPRLPRPRPRPWQSPRP | 0.143
RRIRHRPPRLPRPRPRPHMLPRP | -0.0874
RRIRQRPPRLPRPRPRPIPYPRP | -0.0122
RRIRDRPPRLPRPRPRPPPWPRP | 0.788
RRIRSRPPRLPRPRPRPYEFPRP | -0.438
RRIRERPPRLPRPRPRPEYQPRP | 0.00497
RRIRQRPPRLPRPRPRPQEYPRP | 0.0742
RRIRQRPPRLPRPRPRPDSNPRP | -0.382
RRIRDRPPRLPRPRPRPSINPRP | -0.113
RRIRVRPPRLPRPRPRPCCDPRP | -0.182

Sequence | shrunken log2 fold change
RRIRCRPPRLPRPRPRPFVWPRP | 0.0706
RRIRDRPPRLPRPRPRPTRNPRP | 0.174
RRIRCRPPRLPRPRPRPQFHPRP | -0.635
RRIRDRPPRLPRPRPRPKPWPRP | 0.46
RRIRHRPPRLPRPRPRPPHHPRP | -0.0583
RRIRERPPRLPRPRPRPVGDPRP | -0.0343
RRIRCRPPRLPRPRPRPDSMPRP | -0.0886
RRIRRRPPRLPRPRPRPHNYPRP | 0.103
RRIRTRPPRLPRPRPRPVQFPRP | -0.0192
RRIRSRPPRLPRPRPRPWDLPRP | 0.056
RRIRARPPRLPRPRPRPKESPRP | 0.602
RRIRHRPPRLPRPRPRPSNIPRP | -0.332
RRIRARPPRLPRPRPRPKEEPRP | -0.0728
RRIRGRPPRLPRPRPRPRLEPRP | 1.16
RRIRCRPPRLPRPRPRPAQGPRP | 0.631
RRIRRRPPRLPRPRPRPLVIPRP | -0.0686
RRIRSRPPRLPRPRPRPILLPRP | -0.334
RRIRWRPPRLPRPRPRPNLTPRP | -0.222
RRIRDRPPRLPRPRPRPIWAPRP | -0.0982
RRIRHRPPRLPRPRPRPYHIPRP | -0.045
RRIRWRPPRLPRPRPRPKAPPRP | 0.378
RRIRIRPPRLPRPRPRPRRTPRP | -0.0386
RRIRWRPPRLPRPRPRPLYCPRP | -0.22
RRIRPRPPRLPRPRPRPGRFPRP | 0.434
RRIRARPPRLPRPRPRPGPGPRP | 1.08
